The target in this series is T1, J-binding protein 1 (JBP1) (Crithidia fasciculata) (UniProt Q9U6M2).
T1 sequence: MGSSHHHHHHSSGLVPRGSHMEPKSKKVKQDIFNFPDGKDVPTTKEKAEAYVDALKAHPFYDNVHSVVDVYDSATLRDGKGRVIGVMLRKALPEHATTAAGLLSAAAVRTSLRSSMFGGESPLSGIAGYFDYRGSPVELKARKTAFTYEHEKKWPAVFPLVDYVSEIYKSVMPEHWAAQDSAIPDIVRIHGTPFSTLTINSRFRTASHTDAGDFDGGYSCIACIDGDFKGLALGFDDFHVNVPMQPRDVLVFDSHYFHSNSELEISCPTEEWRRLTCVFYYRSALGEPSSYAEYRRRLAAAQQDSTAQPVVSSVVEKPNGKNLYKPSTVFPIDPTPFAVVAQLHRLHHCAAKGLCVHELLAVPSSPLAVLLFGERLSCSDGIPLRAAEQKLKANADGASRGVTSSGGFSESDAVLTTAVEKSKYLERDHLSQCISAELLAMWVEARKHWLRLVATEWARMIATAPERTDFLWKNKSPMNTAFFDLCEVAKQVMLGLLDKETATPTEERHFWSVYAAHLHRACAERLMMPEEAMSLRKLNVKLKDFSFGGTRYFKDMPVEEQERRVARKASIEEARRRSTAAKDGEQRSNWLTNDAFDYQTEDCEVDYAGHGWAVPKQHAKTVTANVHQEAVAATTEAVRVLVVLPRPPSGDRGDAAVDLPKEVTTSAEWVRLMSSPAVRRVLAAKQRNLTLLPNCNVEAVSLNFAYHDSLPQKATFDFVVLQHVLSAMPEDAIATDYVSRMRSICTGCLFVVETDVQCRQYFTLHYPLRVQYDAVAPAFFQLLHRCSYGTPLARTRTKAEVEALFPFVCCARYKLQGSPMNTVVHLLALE
Put plainly: pulldown. The note with it: beta-glucosyl-5hmC in place of all C (outside primers); 132 ng JBP1 beads, 10 ng DNA, 150 mM NaCl, 10 mM Tris pH 8.0, 2 mM EDTA, room temperature.

On to pUC18 2.7 kb PCR product, beta-glu-5hmC, for which the binding signal (% DNA pulled down) is < 6.

These data come from patent US9677128.
